Laboratory results published in paper PMC6358694, “Crystal structure of the WD40 domain dimer of LRRK2” (Proceedings of the National Academy of Sciences of the …, 2019).

B1: LRRK2 WD40 domain mutant M2408E (domain or fragment, human, UniProt Q5S007 2142-2527, looked up)
chain: RRILLPKNVIVECMVATHHNSRNASIWLGCGHTDRGQLSFLDLNTEGYTSEEVADSRILCLALVHLPVEKESWIVSGTQSGTLLVINTEDGKKRHTLEKMTDSVTCLYCNSFSKQSKQKNFLLVGTADGKLAIFEDKTVKLKGAAPLKILNIGNVSTPLMCLSESTNSTERNVMWGGCGTKIFSFSNDFTIQKLIETRTSQLFSYAAFSDSNIITVVVDTALYIAKQNSPVVEVWDKKTEKLCGLIDCVHFLREVMVKENKESKHKESYSGRVKTLCLQKNTALWIGTGGGHILLLDLSTRRLIRVIYNFCNSVRVMMTAQLGSLKNVMLVLGYNRKNTEGTQKQKEIQSCLTVWDINLPHEVQNLEKHIEVRKELAEKMRRTSVE
notes: LRRK2, human, WD40 domain, residues 2142-2527, with M2408E; Probably MBP-tagged and from Sf9 as the WT; methods in the SI Appendix; source: purified proteins
B2: LRRK2 WD40 domain PD-associated variant Y2189C (domain or fragment, human, UniProt Q5S007 2142-2527, looked up)
chain: RRILLPKNVIVECMVATHHNSRNASIWLGCGHTDRGQLSFLDLNTEGCTSEEVADSRILCLALVHLPVEKESWIVSGTQSGTLLVINTEDGKKRHTLEKMTDSVTCLYCNSFSKQSKQKNFLLVGTADGKLAIFEDKTVKLKGAAPLKILNIGNVSTPLMCLSESTNSTERNVMWGGCGTKIFSFSNDFTIQKLIETRTSQLFSYAAFSDSNIITVVVDTALYIAKQNSPVVEVWDKKTEKLCGLIDCVHFLREVMVKENKESKHKMSYSGRVKTLCLQKNTALWIGTGGGHILLLDLSTRRLIRVIYNFCNSVRVMMTAQLGSLKNVMLVLGYNRKNTEGTQKQKEIQSCLTVWDINLPHEVQNLEKHIEVRKELAEKMRRTSVE
notes: LRRK2, human, WD40 domain, residues 2142-2527, with the PD-associated variant Y2189C; Probably MBP-tagged and from Sf9 as the WT; methods in the SI Appendix; source: purified proteins
B3: MBP-tagged LRRK2 WD40 domain, wild type (domain or fragment, human, UniProt Q5S007 2142-2527, looked up)
chain: RRILLPKNVIVECMVATHHNSRNASIWLGCGHTDRGQLSFLDLNTEGYTSEEVADSRILCLALVHLPVEKESWIVSGTQSGTLLVINTEDGKKRHTLEKMTDSVTCLYCNSFSKQSKQKNFLLVGTADGKLAIFEDKTVKLKGAAPLKILNIGNVSTPLMCLSESTNSTERNVMWGGCGTKIFSFSNDFTIQKLIETRTSQLFSYAAFSDSNIITVVVDTALYIAKQNSPVVEVWDKKTEKLCGLIDCVHFLREVMVKENKESKHKMSYSGRVKTLCLQKNTALWIGTGGGHILLLDLSTRRLIRVIYNFCNSVRVMMTAQLGSLKNVMLVLGYNRKNTEGTQKQKEIQSCLTVWDINLPHEVQNLEKHIEVRKELAEKMRRTSVE
notes: leucine-rich repeat kinase 2 (LRRK2), human, WD40 domain, residues 2142-2527; MBP-tagged monomer calculated at about 83 kDa; The tag is named for the MALS runs; also called WT WD40 domain; source: Sf9 insect cells via baculovirus infection, purified to homogeneity

Assays:
[1] = target: the molecule itself; assay: SEC; gel filtration chromatography; WT serially diluted from 2 mg/mL to 0.25 mg/mL; mutants compared with WT at matched concentrations by elution position
[2] = target: the molecule itself; assay: SEC-MALS; MBP-tagged WD40 domain injected at 2 mg/mL; in-line size exclusion column, three-angle light scattering and refractive index detectors

| Protein | binding result [1] | stoichiometry N [2] |
| --- | --- | --- |
| B1 | binds |  |
| B2 | binds |  |
| B3 |  | 2 |
